Our source for the stoichiometry N values is paper PMC12872393, “NCOA4 initiates ferritinophagy by avidly binding GATE16 using two short linear interaction motifs” (Life Science Alliance, 2026).

The target of the test is (GST-GATE16)2 (UniProt P60520). In words: SEC-MALS; 100 μl of 1 mg/ml protein on a WTC-030 column; 20 mM Tris, 150 mM NaCl, pH 7.5; 0.5 ml/min.

For “(GST-GATE16)2 (from UniProt P60520 1-117) (natural protein)”, the stoichiometry N came to 2.
